Two molecules from patent US6867008 (NEW ENGLAND MEDICAL CENTER HOSPITALS, dated 2005) can be followed below.

In experiment [1] the target is T1, mERβ1-516/GalBD (mouse, UniProt P04386 1-147; O08537 46-217).
T1 construct: Expression in Y190 confirmed by Western blot
As to the kind of experiment: yeast two-hybrid, HIS and β-galactosidase reporters.

The target in experiment [2] is T2, mERβ1-622/GalBD (mouse, UniProt P04386 1-147; O08537 46-252).
T2 construct: about the first 207 codons of the short variant ORF (my reading)
The experiment is described as above.

Experiment [3] deals with T3, hERα/BD (human estrogen receptor alpha fused to the Gal4 DNA binding domain) (human, UniProt P04386 1-147; P03372 1-595).
T3 construct: also called ERα/GalBD; hERα/GalBD
As to the kind of experiment: yeast two-hybrid. The text has this: Screening of the ovine library yielded clone EC1. […] Yeast strain Y190 was transformed with mERβ/BD in combination with EC1/AD and GalAD respectively and plated on Sc-His (synthetic complete medium, minus histidine) and YPD (yeast extract, peptone, dextrose) plates (FIG. 1A). […] Yeast strain Y190 was also transformed with human ER alpha (hERα)/BD in combination with EC1/AD, hERα/BD and Trip 1/AD and plated on Sc-His and YPD plates. Positive interaction of hERα/BD with […] and Trip 1/GalAD was seen only in the presence of estrogen. Colony lift β-Galactosidase assays were also performed with yeasts from the YPD plate in both FIG. 1A and 1B. TIF2 and TRIP1 homologs were found previously by screening a human heart library with mERβ as bait. […] This implies a new function for ER beta that may be separated from its estrogen binding function.

The target in experiment [4] is T4, [35S]hERα (in vitro translated human estrogen receptor alpha) (human, UniProt P03372 1-595, [35S]methionine labelled).
T4 construct: also called [^35S] labeled hERα; ER alpha
T4 sequence (looked up): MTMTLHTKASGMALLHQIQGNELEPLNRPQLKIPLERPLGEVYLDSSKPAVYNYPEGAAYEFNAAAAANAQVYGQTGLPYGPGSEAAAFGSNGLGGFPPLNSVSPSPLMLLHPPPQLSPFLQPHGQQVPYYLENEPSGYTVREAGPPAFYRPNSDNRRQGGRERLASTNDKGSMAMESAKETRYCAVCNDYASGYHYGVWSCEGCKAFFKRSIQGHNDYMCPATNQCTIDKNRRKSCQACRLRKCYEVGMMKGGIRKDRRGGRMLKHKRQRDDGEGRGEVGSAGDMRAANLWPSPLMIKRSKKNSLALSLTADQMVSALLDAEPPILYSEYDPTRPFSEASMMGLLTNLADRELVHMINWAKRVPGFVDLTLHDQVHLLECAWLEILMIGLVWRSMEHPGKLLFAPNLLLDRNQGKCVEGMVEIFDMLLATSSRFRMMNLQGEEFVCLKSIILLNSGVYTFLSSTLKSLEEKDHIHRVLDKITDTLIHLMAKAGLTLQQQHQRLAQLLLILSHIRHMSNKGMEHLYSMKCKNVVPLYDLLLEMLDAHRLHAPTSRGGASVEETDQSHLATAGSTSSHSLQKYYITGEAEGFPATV
As to the kind of experiment: GST pull-down, SDS-PAGE and autoradiography. On the procedure: Recombinant proteins were incubated at 4° in suspension buffer (20 mM Tris pH7.4, 137 mM NaCl, 2 mM EDTA pH7.4, 1% TritonX-100, 10% Glycerol, 25 mM β-glycerolphosphate, 1 mM Na vanadate, […], 1 mM PMSF) with either one of the GST fusion proteins immobilized on glutathione-Sepharose beads for 1 hour. Beads were then washed three times in suspension buffer, boiled 5 minutes in SDS sample buffer, and associated proteins resolved by SDS-PAGE. Labeled protein bands in gels were then visualized by autoradiography.
[^35S] labeled mERβ was incubated with GST-beads (Lane 2) and GST-EC1 beads (Lane 3) followed by SDS-PAGE and autoradiography. […] In the complementary experiment (FIG. 4B), [^35S]-labeled hsMAD2 was incubated with GST beads (Lane 2) and GST-mERP beads (Lane 3) followed by SDS-PAGE and autoradiography. […] MAD2 input (FIG. 4B). GST-fusion protein interaction studies were also done with hERα. [^35S] labeled hERα was incubated with GST-mERβ (Lane 2, positive control), GST-beads (Lane 3) and GST-EC1 beads followed by SDS-PAGE and autoradiography.

B1: EC1/AD (ovine clone EC1, MAD2 homolog, fused to the Gal4 activating domain, vector pGAD10) (other, not shown: large carriers)
chain: REQGITLRGSAEIVAEFFSFGINSILYQRGIYPSETFTRVQKYGLTLLVTTDPELIKYLNNVVDQLKEWLYKCSVQKLVVVISNIESGEVLERWQFDIECDKTAKDDSAPREKSQKAIQDEIRSVIRQITATVTFLPLLEVSCSFDLLIYTDKDLVVPEKWEESGPQFITNSEEVRLRSFTTTIHKVNSMVAYKIPVHD
notes: Library clone from ovine pulmonary artery endothelial cells; also called EC1/GalAD
For the molecule B1, the binding result in experiment [1] is “no binding”; in experiment [2] it was “binds”; in experiment [3], “no binding”.

B2: GST-EC1 (other)
chain: B1 chain
notes: Immobilised on glutathione-Sepharose beads; also called GST-MAD2 clone; GST MAD2; not shown: glutathione S-transferase of vector pGEX-4T-1
For B2, the binding result in experiment [4] is “no binding”.
